Measured values: US20220017611A1

target: Tau RD (MTBD) P301S fused to CFP or YFP, in HEK293 Tau RD P301S FRET Biosensor cells (UniProt P10636); assay: cell-based or functional assay
Sequence (P10636 561-689 P618S): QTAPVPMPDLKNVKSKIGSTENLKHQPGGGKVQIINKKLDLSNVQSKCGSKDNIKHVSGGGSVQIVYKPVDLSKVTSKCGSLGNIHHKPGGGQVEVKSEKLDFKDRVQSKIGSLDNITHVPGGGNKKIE

Binder | mCherry-gated FRET positive cells after MTBD seeds | seeding inhibition | seeding inhibition against mCherry-VHH F8-2
mCherry-VHH Mut12 (VHH, not shown: large carriers) VHH: AEVQLQASGGVFVQSGGSLRLCCAASGATSTFDGMGWFRQAPGKEREFVSAISYEQGSYTYYADSVKGRFTISRDNSKNMVYLQMNSLRAEDTATYYCAPAYEGDLYAFDSYGEQGTQVTVSS | 8.5% | 48% | –
mCherry-VHH E4-1 (VHH, not shown: large carriers) VHH: EVQLQASGGGFVQPGGSLRLSCAASGATSTFDGMGWFRQAPGKEREFVSAISYEQGSYTYYADSVKGRFTISRDNSKNTVYLQMNSLRAEDTATYYCAPAYEGDLYAFDSYWGQGTQVTVSS | 15.2% | – | 7.8%
mCherry-VHH Mut3 (VHH, not shown: large carriers) VHH: EVQLQASGGVFVQSGGSLRLSCAASGATSTFDGMGWFRQAPGKEKEFVSAISYEQGSYTYYADSVKGRFTISRDNSKNMVYLQMNSLRAEDTATYYCAPAYEGDLYAFDSYGGQGTQVTVSS | 8.2% | 50% | –
mCherry-VHH Z70 (VHH, not shown: large carriers) VHH: EVQLQASGGVFVQSGGSLRLSCAASGATSTFDGMGWFRQAPGKEREFVSAISYEQGSYTYYADSVKGRFTISRDNSKNMVYLQMNSLRAEDTATYYCAPAYEGDLYAFDSYGGQGTQVTVSS | 9.9% | – | 40%
mCherry-VHH Mut14 (VHH, not shown: large carriers) VHH: EVQLQASGGVFVQSGGSLRLSCAASGATSIFDGMGWFRQAPGKEREFVSAISYGQGSYTYYADSVKGRFTISRDNSKNMVYLQMNSLRAEDTATYYCAPAYEGDLYAFDSYGEQGTQVTVSS | 12.7% | 23% | –
mCherry-VHH Mut5 (VHH, not shown: large carriers) VHH: EVQLQASGGVFVQSGGSLRLSCAASGATSTFDGMGWFRQAPGKEREFVSAISYEQGSYTYYADSVKGRFTISRDNSKNMVYLQMNSLRAEDTASYYCAPAYEGDLYAFDSYGGQGTQVTVSS | 12.1% | 27% | –
mCherry-VHH Mut1 (VHH, not shown: large carriers) VHH: EVQLQASGGVFVQSGGSLRLSCAASGATSTFDGMGWFRQAPGKEREFVSAISYEQGSYTYYADSVKGRFTISRDNSKNMVYLQMNSLRAEDTATYYCAPAYEGDLYAFDSYGEQGTQVTVSS | 8.2% | 50% | –
mCherry-VHH Mut20 (VHH, not shown: large carriers) VHH: EVQLQASGGVFVQSGGSLRLSCAASGATSTFDGMGWFRQAPGKEKEFVSAISYEQGSYTYYADSVKGRFTISRDNSKNMVYLQMNSLRAEDTATYYCAPAYEGDLYAFDSYGEQGTQVTVSS | 11.2% | 32% | –
